# B1: bsAb033 (bispecific antibody)
# heavy (part 1 of 2): QVQLVQSGAEVKKPGASVKLSCKASGYIFTRYYMYWVKQRPGQGLEWIGEINPNNGGTKFNEKFKNRATLTVDKSISTAYMELSRLRSDDTAVYYCSREDDYDGTPFAMDYWGQGTLVTVSS
# heavy (part 2 of 2): GGGGSGGGGSGGGGSGGGGSQVQLVQSGVEVKKPGASVKVSCKASGYTFTNYYMYWVRQAPGQGLEWMGGINPSNGGTNFNEKFKNRVTLTTDSSTTTAYMELKSLQFDDTAVYYCARRDYRFDMGFDYWGQGTTVTVSSGGGGSGGGGSGGGGSGGGGSEIVLTQSPATLSLSPGERATLSCRASKGVSTSGYSYLHWYQQKPGQAPRLLIYLASYLESGVPARFSGSGSGTDFTLTISSLEPEDFAVYYCQHSRDLPLTFGGGTKVEIK
# heavy: B1 heavy (part 1 of 2)
# light: not shown
# notes: IgG anti-BTN3A, one scFv anti-PD-1; not shown: IgG1 CH1-hinge-CH2-CH3
# B2: bsAb038 (bispecific antibody)
# heavy (part 1 of 2): B1 heavy (part 1 of 2)
# heavy (part 2 of 2): GGGGSGGGGSGGGGSGGGGSEIVLTQSPATLSLSPGERATLSCRASKGVSTSGYSYLHWYQQKPGQAPRLLIYLASYLESGVPARFSGSGSGTDFTLTISSLEPEDFAVYYCQHSRDLPLTFGGGTKVEIKGGGGSGGGGSGGGGSGGGGSQVQLVQSGVEVKKPGASVKVSCKASGYTFTNYYMYWVRQAPGQGLEWMGGINPSNGGTNFNEKFKNRVTLTTDSSTTTAYMELKSLQFDDTAVYYCARRDYRFDMGFDYWGQGTTVTVSS
# heavy: B1 heavy (part 1 of 2)
# light: not shown
# notes: as for B1
# B3: bsAb047 (bispecific antibody)
# heavy 1: EIVLTQSPATLSLSPGERATLSCRASKGVSTSGYSYLHWYQQKPGQAPRLLIYLASYLESGVPARFSGSGSGTDFTLTISSLEPEDFAVYYCQHSRDLPLTFGGGTKVEIKGGGGSGGGGSGGGGSGGGGSQVQLVQSGVEVKKPGASVKVSCKASGYTFTNYYMYWVRQAPGQGLEWMGGINPSNGGTNFNEKFKNRVTLTTDSSTTTAYMELKSLQFDDTAVYYCARRDYRFDMGFDYWGQGTTVTVSSGGGGSGGGGSGGGGSGGGGSQVQLVQSGAEVKKPGASVKLSCKASGYIFTRYYMYWVKQRPGQGLEWIGEINPNNGGTKFNEKFKNRATLTVDKSISTAYMELSRLRSDDTAVYYCSREDDYDGTPFAMDYWGQGTLVTVSS
# heavy 2: B1 heavy (part 1 of 2)
# light: not shown
# notes: as for B1
# B4: bsAb049 (bispecific antibody)
# heavy 1: QVQLVQSGVEVKKPGASVKVSCKASGYTFTNYYMYWVRQAPGQGLEWMGGINPSNGGTNFNEKFKNRVTLTTDSSTTTAYMELKSLQFDDTAVYYCARRDYRFDMGFDYWGQGTTVTVSSGGGGSGGGGSGGGGSGGGGSEIVLTQSPATLSLSPGERATLSCRASKGVSTSGYSYLHWYQQKPGQAPRLLIYLASYLESGVPARFSGSGSGTDFTLTISSLEPEDFAVYYCQHSRDLPLTFGGGTKVEIKGGGGSGGGGSGGGGSGGGGSQVQLVQSGAEVKKPGASVKLSCKASGYIFTRYYMYWVKQRPGQGLEWIGEINPNNGGTKFNEKFKNRATLTVDKSISTAYMELSRLRSDDTAVYYCSREDDYDGTPFAMDYWGQGTLVTVSS
# heavy 2: B1 heavy (part 1 of 2)
# light: not shown
# notes: as for B1
# B5: bsAb053 (bispecific antibody)
# heavy (part 1 of 2): QVQLVQSGVEVKKPGASVKVSCKASGYTFTNYYMYWVRQAPGQGLEWMGGINPSNGGTNFNEKFKNRVTLTTDSSTTTAYMELKSLQFDDTAVYYCARRDYRFDMGFDYWGQGTTVTVSS
# heavy (part 2 of 2): GGGGSGGGGSGGGGSGGGGSQVQLVQSGAEVKKPGASVKLSCKASGYIFTRYYMYWVKQRPGQGLEWIGEINPNNGGTKFNEKFKNRATLTVDKSISTAYMELSRLRSDDTAVYYCSREDDYDGTPFAMDYWGQGTLVTVSSGGGGSGGGGSGGGGSGGGGSDIQMTQSPSSLSASVGDRVTITCHASQNINVWLSWYQQKPGKAPKLLIYKASNLHTGVPSRFTGSGSGTDFTFTISSLQPEDIATYYCQQGQTYPYTFGQGTKLEIK
# heavy: B5 heavy (part 1 of 2)
# light: EIVLTQSPATLSLSPGERATLSCRASKGVSTSGYSYLHWYQQKPGQAPRLLIYLASYLESGVPARFSGSGSGTDFTLTISSLEPEDFAVYYCQHSRDLPLTFGGGTKVEIKRTVAAPSVFIFPPSDEQLKSGTASVVCLLNNFYPREAKVQWKVDNALQSGNSQESVTEQDSKDSTYSLSSTLTLSKADYEKHKVYACEVTHQGLSSPVTKSFNRGEC
# notes: IgG anti-PD-1, one scFv anti-BTN3A; not shown: IgG1 CH1-hinge-CH2-CH3
# B6: bsAb022 (bispecific antibody)
# heavy: QVQLVQSGVEVKKPGASVKVSCKASGYTFTNYYMYWVRQAPGQGLEWMGGINPSNGGTNFNEKFKNRVTLTTDSSTTTAYMELKSLQFDDTAVYYCARRDYRFDMGFDYWGQGTTVTVSSGGGGSGGGGSGGGGSGGGGSEIVLTQSPATLSLSPGERATLSCRASKGVSTSGYSYLHWYQQKPGQAPRLLIYLASYLESGVPARFSGSGSGTDFTLTISSLEPEDFAVYYCQHSRDLPLTFGGGTKVEIKGGGGSGGGGSGGGGSGGGGSQVQLVQSGAEVKKPGASVKLSCKASGYIFTRYYMYWVKQRPGQGLEWIGEINPNNGGTKFNEKFKNRATLTVDKSISTAYMELSRLRSDDTAVYYCSREDDYDGTPFAMDYWGQGTLVTVSSASTKGPSVFPLAPSSKSTSGGTAALGCLVKDYFPEPVTVSWNSGALTSGVHTFPAVLQSSGLYSLSSVVTVPSSSLGTQTYICNVNHKPSNTKVDKRVEPKSCDKTHTCPPCPAPEFEGGPSVFLFPPKPKDTLMISRTPEVTCVVVDVSHEDPEVKFNWYVDGVEVHNAKTKPREEQYNSTYRVVSVLTVLHQDWLNGKEYKCKVSNKALPASIEKTISKAKGQPREPQVYTLPPSREEMTKNQVSLTCLVKGFYPSDIAVEWESNGQPENNYKTTPPVLDSDGSFFLYSKLTVDKSRWQQGNVFSCSVMHEALHNHYTQKSLSLSPG
# light: not shown
# notes: IgG anti-BTN3A, scFv anti-PD-1
# B7: bsAb025 (bispecific antibody)
# heavy: QVQLVQSGVEVKKPGASVKVSCKASGYTFTNYYMYWVRQAPGQGLEWMGGINPSNGGTNFNEKFKNRVTLTTDSSTTTAYMELKSLQFDDTAVYYCARRDYRFDMGFDYWGQGTTVTVSSASTKGPSVFPLAPSSKSTSGGTAALGCLVKDYFPEPVTVSWNSGALTSGVHTFPAVLQSSGLYSLSSVVTVPSSSLGTQTYICNVNHKPSNTKVDKKVEPKSCDKTHTGGSSGSGSGSTGTSSSGTGTSAGTTGTSASTSGSGSGGGGGSGGGGSAGGEIVLTQSPATLSLSPGERATLSCRASKGVSTSGYSYLHWYQQKPGQAPRLLIYLASYLESGVPARFSGSGSGTDFTLTISSLEPEDFAVYYCQHSRDLPLTFGGGTKVEIKRTVAAPSVFIFPPSDEQLKSGTASVVCLLNNFYPREAKVQWKVDNALQSGNSQESVTEQDSKDSTYSLSSTLTLSKADYEKHKVYACEVTHQGLSSPVTKSFNRGECGGGGSGGGGSGGGGSGGGGSQVQLVQSGAEVKKPGASVKLSCKASGYIFTRYYMYWVKQRPGQGLEWIGEINPNNGGTKFNEKFKNRATLTVDKSISTAYMELSRLRSDDTAVYYCSREDDYDGTPFAMDYWGQGTLVTVSSASTKGPSVFPLAPSSKSTSGGTAALGCLVKDYFPEPVTVSWNSGALTSGVHTFPAVLQSSGLYSLSSVVTVPSSSLGTQTYICNVNHKPSNTKVDKRVEPKSCDKTHTCPPCPAPEFEGGPSVFLFPPKPKDTLMISRTPEVTCVVVDVSHEDPEVKFNWYVDGVEVHNAKTKPREEQYNSTYRVVSVLTVLHQDWLNGKEYKCKVSNKALPASIEKTISKAKGQPREPQVYTLPPSREEMTKNQVSLTCLVKGFYPSDIAVEWESNGQPENNYKTTPPVLDSDGSFFLYSKLTVDKSRWQQGNVFSCSVMHEALHNHYTQKSLSLSPG
# light: not shown
# notes: IgG anti-BTN3A, scFab anti-PD-1
# How the values were obtained:
# [1] = target: T1, recombinant human BTN3A1 (human, UniProt O00481 30-254); assay: SPR
# T1 construct: Soluble form of the antigen used in SPR; also called rhBTN3A1; recombinant BTN3A1 protein
# Procedure: (§1) SPR measures the interactions between two or more biomolecules. In capture kinetics analysis, an antibody is immobilized onto a gold-plated prism. The immobilized antibody is referred to as the ligand. An injection of antigen, referred to as the analyte, is carried out, often as a concentration series. The captured analytes are removed from the sensor chip surface using a regenerating agent, for example a low pH or high ionic strength solution. If investigating binding to several analytes, the antibodies are recaptured from solution before each analyte titration series. The instrument records the changes in refractive indexes (due to the accumulation or depletion of mass) in time and plots the results as sensorgrams.
# (§2) Affinity measurements with respect to BTN3A, PD-1 and PD-L1 were performed by SPR technology, for instance in a Carterra LSA Platform instrument using a soluble form of the antigen as the analyte and the antibody as the ligand. Binding was also assessed through in cellulo binding assays, on cell lines (e.g. HEK293T cells) genetically modified to express the targets of interest or genetically modified to extinct target expression.
# (§3) The 69 produced bsAbs and control mAbs were also evaluated for their binding affinity to recombinant proteins by SPR assays. The equilibrium dissociation constant (KD) was then calculated for constructs showing detectable binding.
# [2] = target: T2, recombinant human PD-1 (human, UniProt Q15116 25-167, limits assumed); assay: SPR
# T2 construct: Soluble antigen in SPR; also called rhPD-1
# Procedure: as §1, §2, §3
# [3] = target: T3, PD-1 at the surface of Jurkat-PD-1 cells (human, UniProt Q15116 25-288); assay: cell-based or functional assay
# [4] = target: T4, BTN3A1 at the surface of HEK-BTN3A1 cells (human, UniProt O00481 30-513); assay: flow cytometry, HEK-BTN3A1 cells
# T4 construct: HEK 293T BTN2A/BTN3A KO cells transduced with a BTN3A1 expressing vector
# [5] = target: T3, PD-1 at the surface of Jurkat-PD-1 cells; assay: flow cytometry, Jurkat-PD-1 cells
# T4 sequence (O00481 30-513 limits assumed): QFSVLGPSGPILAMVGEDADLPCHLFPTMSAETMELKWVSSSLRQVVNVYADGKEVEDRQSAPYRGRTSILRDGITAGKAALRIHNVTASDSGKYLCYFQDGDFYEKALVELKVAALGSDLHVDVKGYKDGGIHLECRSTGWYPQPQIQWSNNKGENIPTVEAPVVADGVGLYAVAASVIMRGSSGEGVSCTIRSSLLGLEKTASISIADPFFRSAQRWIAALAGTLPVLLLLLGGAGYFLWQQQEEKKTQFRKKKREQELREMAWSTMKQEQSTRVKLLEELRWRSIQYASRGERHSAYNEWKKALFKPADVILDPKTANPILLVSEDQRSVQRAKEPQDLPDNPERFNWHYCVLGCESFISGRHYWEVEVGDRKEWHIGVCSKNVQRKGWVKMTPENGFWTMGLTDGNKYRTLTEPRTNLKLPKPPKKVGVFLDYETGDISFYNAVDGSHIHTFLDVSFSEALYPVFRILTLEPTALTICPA
# T3 sequence (Q15116 25-288): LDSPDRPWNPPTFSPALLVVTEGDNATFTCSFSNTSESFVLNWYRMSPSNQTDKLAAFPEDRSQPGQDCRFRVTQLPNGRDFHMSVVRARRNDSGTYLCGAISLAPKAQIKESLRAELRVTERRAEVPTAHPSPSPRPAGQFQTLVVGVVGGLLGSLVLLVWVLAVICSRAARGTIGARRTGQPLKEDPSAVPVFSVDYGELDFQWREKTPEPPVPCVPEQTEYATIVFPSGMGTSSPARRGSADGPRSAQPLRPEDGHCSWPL
# T1 sequence (O00481 30-254 limits assumed): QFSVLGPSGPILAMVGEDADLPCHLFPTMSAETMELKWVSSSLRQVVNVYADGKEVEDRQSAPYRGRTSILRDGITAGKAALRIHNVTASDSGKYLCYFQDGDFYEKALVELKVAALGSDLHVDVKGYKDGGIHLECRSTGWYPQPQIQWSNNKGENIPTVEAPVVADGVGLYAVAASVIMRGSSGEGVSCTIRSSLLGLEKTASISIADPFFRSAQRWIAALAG
# T2 sequence (Q15116 25-167 limits assumed): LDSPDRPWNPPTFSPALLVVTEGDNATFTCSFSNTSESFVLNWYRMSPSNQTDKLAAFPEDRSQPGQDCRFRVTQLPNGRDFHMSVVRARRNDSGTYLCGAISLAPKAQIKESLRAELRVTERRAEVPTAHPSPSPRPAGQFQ
Binder,Kd [1],Kd [2],Jurkat-PD-1 activation at 10 nM [3],Jurkat-PD-1 activation at 100 nM [3],MFI at 10 nM [4],MFI at 100 nM [4],MFI at 10 nM [5],MFI at 100 nM [5]
B1,0.067 nM,0.786 nM,1.6 fold-change to medium,6 fold-change to medium,584000 MFI,1.18e+06 MFI,194000 MFI,340000 MFI
B2,0.071 nM,1.9 nM,1.5 fold-change to medium,3.5 fold-change to medium,588000 MFI,1.2e+06 MFI,160000 MFI,294000 MFI
B3,0.168 nM,1.4 nM,3.1 fold-change to medium,8.3 fold-change to medium,536000 MFI,866000 MFI,264000 MFI,364000 MFI
B4,0.101 nM,0.856 nM,1.3 fold-change to medium,2.3 fold-change to medium,460000 MFI,740000 MFI,175000 MFI,376000 MFI
B5,0.393 nM,0.984 nM,–,–,494000 MFI,1.24e+06 MFI,187000 MFI,424000 MFI
B6,0.163 nM,0.928 nM,–,–,224000 MFI,992000 MFI,216000 MFI,367000 MFI
B7,0.154 nM,1.1 nM,–,–,177000 MFI,669000 MFI,110000 MFI,358000 MFI

# — patent US20260265379A1 (IMCHECK THERAPEUTICS, published 2026)
